Laboratory results from patent US6835378B2, “Method and compositions for inhibiting thrombin-induced coagulation” (The Texas A&M University System University, priority 2001, dated 2004).

How the values were obtained:
[1] = system: fibronectin, collagen types I and IV, vitronectin, laminin and thrombospondin; test: ELISA: ligand specificity on other immobilized ECM proteins; type: binding; conditions: data not shown
Fg Bβ chain = target: T1, Fg Bβ chain (Homo sapiens, UniProt P02675); test: Western ligand blot with biotin labeled rSdrG(50-597); type: binding
T1 construct: recognized the mature recombinant Bβ chain (residues 1-462); made in house; host or cells: E. coli
T1 sequence (P02675 31-491): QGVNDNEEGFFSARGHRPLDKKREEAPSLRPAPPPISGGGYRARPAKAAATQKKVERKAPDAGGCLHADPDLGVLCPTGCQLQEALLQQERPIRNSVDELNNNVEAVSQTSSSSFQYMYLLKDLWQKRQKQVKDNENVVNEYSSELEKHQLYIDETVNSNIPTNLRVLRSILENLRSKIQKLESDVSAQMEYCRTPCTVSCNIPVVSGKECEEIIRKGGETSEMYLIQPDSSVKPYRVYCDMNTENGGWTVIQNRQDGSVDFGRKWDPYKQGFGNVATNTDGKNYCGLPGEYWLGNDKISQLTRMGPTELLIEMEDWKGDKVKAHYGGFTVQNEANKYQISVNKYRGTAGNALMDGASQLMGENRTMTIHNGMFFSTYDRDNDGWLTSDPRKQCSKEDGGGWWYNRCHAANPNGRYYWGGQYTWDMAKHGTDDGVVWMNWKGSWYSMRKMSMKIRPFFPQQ
Text: Construction of Fg Bβ Chain Truncates—An E. coli strain harboring plasmid p668 which contains the cDNA for the Fg Bβ chain was kindly provided by Dr. Susan T. Lord (University of North Carolina, Chapel Hill, N.C.). The 1525 bp fragment from p668 was subcloned into the plasmid pQE30 to produce recombinant mature Bβ chain with a N-terminal His-tag. Additional Bβ chain constructs (FIG. 3A) were made by subcloning into either pQE30 or pGEX-KG (Pharmacia) to produce recombinant proteins with a N-terminal His-tag or Glutathione S-transferase (GST) fusion.
Western Ligand Blot Analysis—Whole E. coli lysates harboring each respective Fg Bβ chain construct were fractionated by SDS-PAGE and the separated proteins were transferred to nitrocellulose membrane with a semi-dry transfer cell (Bio-Rad). The membrane was incubated overnight with 5% (w/v) non-fat dry milk in PBS, pH 7.5 at 4° C. to saturate non-specific binding sites. After blocking, the membrane was washed three times with PBST and then incubated with biotin labeled rSdrG(50-597) (0.5 μM) for 1 h at room temperature. rSdrG(50-597) was biotin labeled using EZ Link-sulfo-NHS-LC biotin (Sigma) according to the manufacturers' instructions. After three more washes with PBST, the blot was incubated with a 1:5000 dilution of streptavidin-AP conjugated for 1 h at room temperature and developed with 5-bromo-4-chloro-3-indolyl phosphate (BCIP) and nitro blue tetrazolium (NBT) (Biorad) in carbonate:bicarbonate buffer (14 mM Na2CO3, 36 mM NaHCO3, 5 mM MgCl2:6H2O, pH 9.8) for ˜15 min at room temperature.

B1: rSdrG(50-597): recombinant His-tagged A region (residues 50-597) of SdrG, a fibrinogen-binding MSCRAMM from S. epidermidis (protein)
chain: HHHHHHAEENTVQDVKDSNMDDELSDSNDQSSNEEKNDVINNSQSINTDDDNQIKKEETNSNDAIENRSKDITQSTTNVDENEATFLQKTPQDNTQLKEEVVKEPSSVESSNSSMDTAQQPSHTTINSEASIQTSDNEENSRVSDFANSKIIESNTESNKEENTIEQPNKVREDSITSQPSSYKNIDEKISNQDELLNLPINEYENKVRPLSTTSAQPSSKRVTVNQLAAEQGSNVNHLIKVTDQSITEGYDDSDGIIKAHDAENLIYDVTFEVDDKVKSGDTMTVNIDKNTVPSDLTDSFAIPKIKDNSGEIIATGTYDNTNKQITYTFTDYVDKYENIKAHLKLTSYIDKSKVPNNNTKLDVEYKTALSSVNKTITVEYQKPNENRTANLQSMFTNIDTKNHTVEQTIYINPLRYSAKETNVNISGNGDEGSTIIDDSTIIKVYKVGDNQNLPDSNRIYDYSEYEDVTNDDYAQLGNNNDVNINFGNIDSPYIIKVISKYDPNKDDYTTIQQTVTMQTTINEYTGEFRTASYDNTIAFSTSSGQGQGDLPPE
binding to other immobilized ECM proteins [1]: failed to bind
binding to truncates lacking the N-terminal 25 residues, rβ(25-95) and rβ(25-195) (Fg Bβ chain; 0.5 μM biotin labeled protein): failed to bind
recognition of recombinant Bβ chain (1-462) and truncates 1-341, 1-220, 1-195, 1-95 (Fg Bβ chain; 0.5 μM biotin labeled protein): recognized
recognition of Fg chains (Fg Bβ chain; native Fg chains, data not shown): recognized the Bβ chain, but not the Aα or γ chains of Fg
